Assay: soluble fraction after stress (log2 fold change); higher = more stays soluble; pooled small domains, quantitative proteomics
Settings: stress: 50 degC
Outline: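 The stress applied to every library was 50°C. These custom libraries of small protein domains were pooled and measured at high throughput with quantitative proteomics as the read-out. Aggregation propensity is expressed as the base-two logarithm of the fold change in how much of each protein remains soluble. The higher the value, the more of that protein stays in solution.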

“HMVVVVELTENEKAVQDVLTKNEGSLEISDLKTKLELSGKQWDKALKGLAKHGITQVAKVDGVVTVSL” and “HMTPVSQIATKDIEEKIDSLSDEYKDPFILHFKGFKYKEIADQLDIPIGTVKSRIFIARKKLIDLLPDY” are within 0.2 log units of each other in “soluble fraction (log2)” value: -0.303 for the first, -0.115 for the second.

Going from “HMGLNELQVKLNEAMQRLSLKHRTVVVMHDIEGIPHDEIAKIVGVSVGTIRSRLFYARRQLQADLGEY” to “HMHETMGQIIKRLRKERGLTQESLAERLGVTFQAVSKWETDAGMPDVSQIVPLANAFGVRTDVLFGLEGRD”, the “soluble fraction (log2)” value rises from -2.57 to -0.111.

“HMAKSETAKIKATPYGWLRVRDTPSLNGAEIARVNSGDEYKVLEKETGWIKIKVSDTVEGWVSDAYIELS” and “HMSEKRLHLVVDESDVNTRIDKYIADELDGYSRSFIQKLIKDNNVLVNGRAVKPNYNIGISDNIDIVLPKL” are within 0.2 log units of each other in “soluble fraction (log2)” value: -0.0312 for the first, -0.00587 for the second.

“HMKNLTERQQRIIALISENPQTTRAEIAGAIGVATKTIERELTTLSNIVYYVGPKKGGHWEIIK” and “HMTVLPTEQDAKALVGLGEEEAAKIVEGNGWTYRIGSRDGEQFMLTEDFVTSRLTLGIEKAIVMTATI” are within 0.2 log units of each other in “soluble fraction (log2)” value: -0.865 for the first, -0.915 for the second.

First: HMRSFGTLRRLPSGRYQASYAGPDLRRHAAPTTFETKLDAEGWLRDEHRMIERDEWTAPAARSQLK
Second: HMTSKIIIGDSYSKINKLLGEPENMKKRKFLDNEYLMVLYSINKKNYRLYFKDNILFELEDI
The “soluble fraction (log2)” value of the first is higher: 0.214 for the first, -0.941 for the second.

First: HMGEVQALIPGLVSKLFVVEGESVKIGQKLIILEAMKMENEIASPINGTIKKIYIKSGDKIDKGSIIMEIT
Second: HMFPNSFSEREKEVVDLLLQAKSNKQIAFSLGITNRTVEYHLGNIFAKLGVSSRSEAILTITNYKNQ
The “soluble fraction (log2)” value of the first is higher: -0.336 for the first, -2.01 for the second.

Compared with “HMAEMLQDVLNMLSAKDREILVRYYYYYESVKQVAAEMQMSESAVKMRMSRARKKMQQELIDKG”, “HMDKSPMIGTAEYEGVLYWRQTKDNGATWEWITDKNGDKMPVSGPAPAVGIDKDGYWTVNGESTGVLAKD” is higher in “soluble fraction (log2)” value: -3.59 for the first, 0.168 for the second.

Going from “HMPRRSYLDARKKLLGMLNSPDFNSGDQIPAERELSEVLGISRVTVRKIITELIDEGVLERRGNQGTWLVD” to “HMLKIVRSREEVESRLYTIYGNVKGRRLYNFYLSLIIDGLDIVKARTSKNVYYTNIRNLKNAGIDFSQKIN”, the “soluble fraction (log2)” value falls from -0.378 to -2.38.

First: HMALRFMAYGRINGTNVHFRTGASASTASLGRYSRGTEFGVYDKIGGWYRVRLLSTGQEGYVYSRYLTLTG
Second: HMTNIDRLIGQTAIVKETINNKKEQGVVRINGMDWTARTEEIDEVILKGKPVEILDIQGIKLIVRKK
The “soluble fraction (log2)” value of the first is lower: -2.67 for the first, -0.153 for the second.

“HMVAPKDIVMPSFVGKKYTDVVNTPNSSYTFEFKKDEKNSSDYAVGFIMDQKPKAGETVKSNATVTLIVSK” and “HMGFAEFWLAYPKKVGKGEAERKWKTLKPDAGAVLSAVKRQSASEQWRKDGGRYIPNPATWLHQRRWE” are within 0.2 log units of each other in “soluble fraction (log2)” value: -0.0152 for the first, -0.0238 for the second.

Going from “HMFIEMDEPEKILHRILNEANGKLELDKIGYRAEWPIGKVLTVLMSLELKGVVQSHPGKVYSL” to “HMASAKTVAQSGTYKFAKTTAIKSSASDAASTVGTYYKGNTVNYNAKVTTNGQTWLRYTSYSGAQYYVKVS”, the “soluble fraction (log2)” value falls from -0.154 to -3.18.

Going from “HMATVIDVATTLGRPITDPDEQRQVLNWIGKTERIISARLGDLAALDRQILADVISEVVARRARN” to “HMAEPEALLAMAQRILGEEVAQSLFQGAAREQGKEGYLPDPTPAFLDALEARLSGSVGAATAHAMISQLVG”, the “soluble fraction (log2)” value rises from -0.4 to -0.0483.

Going from “HMQDENAVTYLLEIKNADANDIASVLKTLKSPDADVVVYKTLNMIIFTGQGSEINGLVKVARQLDRK” to “HMGGQYQVRPGETLNQIAARVRPSNMSLSETQKAIIQANPDIFKNGNPNLIFAGDILRIPTGNQI”, the “soluble fraction (log2)” value rises from -0.417 to 0.211.

Compared with “HMKTYEILFDILSRESDYISGEKLAQELGISRTSIWKAIQHLEKEGVHIESVKNKGYKLLSGDLLIAEKI”, “HMQRDERYVYHTVLAGETIYSLSRKFNVTMDELLESNPALRSGVLTTGSEIRVLKAQMAQNFD” is higher in “soluble fraction (log2)” value: -1.14 for the first, -0.376 for the second.

Compared with “HMTLTPEQQAARRSEIVDIALRLIAENGFQKTSMREIADLAKMGKSSLYDFFKTKDEIAVYAMEKK”, “HMRNKTVKEVLDYIEKNSEFIFFYYSKAIDTKRIVSLSVKDQPITVILDQLFKNTDVLYEIKDRQISLKRE” is higher in “soluble fraction (log2)” value: -0.283 for the first, 0.277 for the second.

Going from “HMNPEDDLLKAIIMKYFSNAQVQVDKNVIEYLLKRVDRDYQNLYNILEKINILSLQRKSKITTHLIRDIM” to “HMEFQVKVIVSSLNIRSGPGTSYDTLGTVTKGDIFTIVETNSDSTWGKMQSGGWISIKDAYVKK”, the “soluble fraction (log2)” value falls from -0.432 to -0.688.

Compared with “HMNLIFFSENLSTFRKEKGWTQSELAEKLGVKANTISNYEKGISTPDYKIIAKLRELFEMPTDVLLYSNLS”, “HMHKREKSFFETIYDDIPGIGKKRRVQLLSAYPTLDSLKSVTLEELKQIVPEESAKLILEKRDSR” is higher in “soluble fraction (log2)” value: -1.39 for the first, 0.0407 for the second.

First: HMDFRVGVWVELVQQRRSVRTQLTWVSPQHTLFLFTAKDGSTQSMTLRMRDKLLAEGNLRIVAPPSR
Second: HMALSSQQIKDMQSWYGTKADGIWGSKSTTAAGGRDAGAAYSLYSSNKGRYSSYTDYMSYGGG
The “soluble fraction (log2)” value of the first is lower: -2.23 for the first, 0.072 for the second.

“HMSPRADRSVNLDVGETVQIDDWGADGTAQIRYRGAPWTAVLRPGHTPHPGPHRVIELVGSRLLVEP” and “HMAEGPYSGKKVEKYPGGMEKRETMYSEGKLTRVTEFHQSGQKKMEVKVDANGQWKRLYWDNNGNPT” are within 0.2 log units of each other in “soluble fraction (log2)” value: -0.0121 for the first, 0.07 for the second.

Going from “HMAIMISINAKGEVAWNDQIISLDDLAQRFNAAGQQAQKPTVQLRADKESRYDMVAQVMSRASEAGLSDIA” to “HMPELSPEERAIIETLQKNNDLQVNIIAIKTGMDMGSLSAVLFDLEMKGLVKLLAGGMYHLI”, the “soluble fraction (log2)” value rises from -0.781 to -0.148.

Going from “HMSTEDYLKTIYILESQQGVHGSDVARMLKVTRPTVSIALKALEQEGYVWMDESRLVHLTDSGLQIAKDT” to “HMDQHERQQLLIHIAGGEREALAELYQRTRSAVYGLALSYLKNAHDAQDLTRDVYVQVWDRA”, the “soluble fraction (log2)” value rises from -1.12 to 0.344.

“HMYTGSEGMAGLEGRAVTEVGPEAGTVLVKGEYWQARSDEPIATDRKIRVIRLEGLRLRVAEIHPEG” and “HMLEQISDINILSGYAKEVIAENPKTVSDYLSGKAAAFQALVGQVMKKTGGRGNPVIIQEILKRLIHKK” are within 0.2 log units of each other in “soluble fraction (log2)” value: -0.0371 for the first, 0.116 for the second.

Going from “HMLTPQEIGSRLKLVRQGLQLKQQEVAEIIGTSQLKISKIEQGATVTTPDFLKLLAFYSQSVSLDILF” to “HMGQNYTIVKGDSLWKIAQKQYGDGSQWKKIYDANKDAIESAAKKYGKKSSDSGKWIYPGVSLII”, the “soluble fraction (log2)” value rises from -0.564 to 0.0704.

“HMGAITGLQSRVAFLKGQGTITDAEAKTAMAFLPDPTDSKEVKIAKIGQAREYIMSLIENRA” and “HMIESVMVGIKELLGDTIDQKYEKYIRLGGIPSDEVDEFNSVFSAYEKVNGNHNGKKKYDYVMNNLPIIPV” are within 0.2 log units of each other in “soluble fraction (log2)” value: -0.106 for the first, -0.26 for the second.

Compared with “HMKNIFDWLKQINYHKQPADSFTEKDWELFNSYMVHRFMSMNREFIEVVNYVQEMPPQEKILIYNIYREF”, “HMELRSPMPGLIIEIPVSKGDIIKKDQSLIILEAMKMENVLTSPINGKIADIKVNVQDTVEKNNLLITFEN” is higher in “soluble fraction (log2)” value: -1.02 for the first, -0.164 for the second.

First: HMVLSKGAKELLDFIMREGEVTTSKVVQKFGGSAQNASAKLKKLYATGLILGSKAVAESGGLEFVYKA
Second: HMHYNMNYLENLTKTELFDLAKNKFGLTYAEMERHLSIPEGGARYAIKAEHSKYGSDIKKYLVEFLLE
The “soluble fraction (log2)” value of the first is higher: 0.393 for the first, -1.18 for the second.

“HMSTPLPTGLPRGTIIEYTVQTDETLAIIAAKFNSTVDDIMTRNKITDPNTIYAGQILKVAINLVTP” and “HMGSGQVTLPDLEGKSMKEVARILSQLGLHLSPDGHGLAFKQSPAAGTRVPVGSTIKVSFQPL” are within 0.2 log units of each other in “soluble fraction (log2)” value: 0.15 for the first, 0.0366 for the second.

With “HMDPFVILGISKDSSQSEILEAYKTKRAYYQEHVFDEGDQGAQAARMLGQLDDAYQQAMELSHE” the “soluble fraction (log2)” value was -0.062.

Reference: the domain aggregation screens of Martell et al. (2025)
